Data on 26 molecules can be found in patent US20260193377A1 (FULL LIFE TECHNOLOGIES HK, published 2026).

What is called Kd is the free concentration of one partner at which half of the binding sites on the other are occupied at equilibrium, for simple one-to-one binding. Low values mean higher affinity, high ones lower affinity. The koff is the rate constant with which the complex falls apart. A low value points to slow dissociation. The kon is the second-order rate constant of association. A low value points to slow association.

Positions count from the first letter of the chain named.

The target of assay [1] is T1, Human GUCY2C (captured on anti-human Fc capturing antibody, SPR) (human).
T1 construct: also called human GCC; guanylyl cyclase C
The assay is described as follows: SPR (Biacore T200), human GUCY2C captured via anti-human Fc, sdAb as analyte, 1:1 fit. The method, then:
Anti-GCC sdAbs were diluted with 1×HBS-EP buffer. Human GUCY2C was captured on anti-human Fc capturing Ab-immobilized sCM5 chip. Then anti-GCC sdAb samples were injected with a flow rate of 10 μl/min for 180 sec, followed by dissociation for 800 sec. The binding curves were locally fitted with Biacore® T200 analysis software (BIAevaluation) using a 1:1 Langmuir binding model.

Assay [2] addresses T1, Human GUCY2C (captured on anti-human Fc …). The assay is described as follows: SPR (Biacore T200), human GUCY2C captured via anti-human Fc, humanized sdAb as analyte, 1:1 fit. The procedure:
Exemplary humanized anti-GCC sdAbs of the present application were diluted with 1×HBS-EP buffer. Human GUCY2C was captured on anti-human Fc capturing Ab-immobilized sCM5 chip. Then the humanized anti-GCC sdAb samples were injected with a flow rate of 10 μl/min for 180 sec, followed by dissociation for 800 sec. The binding curves were locally fitted with Biacore® T200 analysis software (BIAevaluation) using a 1:1 Langmuir binding model.
A general note: Surface plasmon resonance follows binding to a sensor surface in real time, without labels.

Assay [3] deals with T2, GCC expressed on T84 cells (UniProt P25092 24-1073, limits assumed).
T2 construct: whole, on cells; also called guanylyl cyclase C; GUCY2C
Put plainly: flow cytometry on T84 cells expressing GCC, 300 nm [sic], PE-anti human Fc secondary; Blank 30.7. The method, then:
T84 cells expressing GCC were used to evaluate the binding affinity of the anti-GCC sdAbs. Briefly, 50 μL T84 cells at density of 3×10⁶ cells/mL were incubated with 50 μL anti-GCC sdAbs at 4° C. for 2 hours. After incubation, the cells were washed three times with 400 μL FACS buffer, resuspended with PE-anti human Fc 2nd antibody (eBioscience 12-4998-82, 1:1000 dilution) and incubated at 4° C. for 60 min. Then the cells were collected and subject to FACS analysis.
(A flow cytometer gives signals particle by particle.)

T1 sequence (P25092 24-430): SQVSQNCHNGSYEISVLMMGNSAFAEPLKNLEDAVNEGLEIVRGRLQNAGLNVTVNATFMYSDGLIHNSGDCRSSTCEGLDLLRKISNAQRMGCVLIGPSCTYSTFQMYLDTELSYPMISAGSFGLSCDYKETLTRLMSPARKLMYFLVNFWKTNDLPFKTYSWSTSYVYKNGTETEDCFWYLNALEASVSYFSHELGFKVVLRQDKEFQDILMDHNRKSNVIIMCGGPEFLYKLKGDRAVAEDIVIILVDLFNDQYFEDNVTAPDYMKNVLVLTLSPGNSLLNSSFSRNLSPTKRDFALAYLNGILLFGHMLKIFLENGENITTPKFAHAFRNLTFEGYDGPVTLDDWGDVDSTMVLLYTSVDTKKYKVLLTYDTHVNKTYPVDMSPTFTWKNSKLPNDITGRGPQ
T2 sequence (P25092 24-1073 limits assumed): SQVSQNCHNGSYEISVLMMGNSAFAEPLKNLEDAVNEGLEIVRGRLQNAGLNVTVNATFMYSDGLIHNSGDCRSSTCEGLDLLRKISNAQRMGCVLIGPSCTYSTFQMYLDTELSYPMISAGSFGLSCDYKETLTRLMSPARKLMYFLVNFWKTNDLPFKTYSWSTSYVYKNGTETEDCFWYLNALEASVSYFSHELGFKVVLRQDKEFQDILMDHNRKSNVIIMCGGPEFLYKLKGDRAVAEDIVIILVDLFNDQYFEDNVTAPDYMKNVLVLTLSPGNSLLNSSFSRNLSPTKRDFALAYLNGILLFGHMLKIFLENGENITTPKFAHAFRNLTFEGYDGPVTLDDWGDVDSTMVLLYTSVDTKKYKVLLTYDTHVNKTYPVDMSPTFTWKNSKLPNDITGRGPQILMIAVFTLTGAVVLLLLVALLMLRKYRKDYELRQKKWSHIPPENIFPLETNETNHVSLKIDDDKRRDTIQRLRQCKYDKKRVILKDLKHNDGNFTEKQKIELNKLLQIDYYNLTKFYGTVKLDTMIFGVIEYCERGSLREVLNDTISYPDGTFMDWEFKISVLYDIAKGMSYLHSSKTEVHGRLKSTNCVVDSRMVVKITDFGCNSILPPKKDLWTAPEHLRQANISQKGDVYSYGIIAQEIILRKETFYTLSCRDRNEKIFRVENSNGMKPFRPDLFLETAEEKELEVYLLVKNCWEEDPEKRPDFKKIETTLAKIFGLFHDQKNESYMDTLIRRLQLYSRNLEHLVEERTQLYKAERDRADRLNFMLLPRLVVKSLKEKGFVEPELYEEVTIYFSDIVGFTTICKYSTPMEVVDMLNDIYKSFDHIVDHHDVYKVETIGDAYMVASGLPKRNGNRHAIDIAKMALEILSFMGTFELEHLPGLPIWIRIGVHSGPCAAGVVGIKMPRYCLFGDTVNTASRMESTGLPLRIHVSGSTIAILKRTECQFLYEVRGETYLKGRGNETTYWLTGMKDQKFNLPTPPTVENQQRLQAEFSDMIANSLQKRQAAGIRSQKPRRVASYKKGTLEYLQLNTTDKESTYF

B1: anti-GCC single domain antibody SEQ ID NO. 4 (VHH)
VHH: QSQLVESGGGLVQPGGSLRLSCAASGSTLDHYATAWFRRAPGKEREGISYISSGGGSTYYVDSVKGRFTISRDNAKRTVYLQMNSLKPEDTAVYFCASKRRFNTGWSEPSDYNVWGQGTQVTVTS
notes: Alpaca-derived sdAb
Turning to B1, in assay [1], the Kd was determined as 0.414 nM, the koff was found to be 0.000149 s⁻¹ and the kon was found to be 359000 M⁻¹ s⁻¹.

B2: humanized anti-GCC single domain antibody SEQ ID NO. 97 (VHH)
VHH: B1 VHH with A75S, R77N, V79L, K87R, P88A
notes: 4
As to B2, in assay [2], the equilibrium dissociation constant (Kd) was determined as 3.68 nM, the koff came to 0.000226 s⁻¹ and the kon is 61300 M⁻¹ s⁻¹.

B3: humanized anti-GCC single domain antibody SEQ ID NO. 96 (VHH)
VHH: B1 VHH with V61A, A75S, R77N, V79L, K87R, P88A, F95Y
notes: 4
In assay [2], B3 yielded a Kd of 1.74 nM, a koff of 0.000143 s⁻¹ and a kon of 82600 M⁻¹ s⁻¹.

B4: anti-GCC single domain antibody SEQ ID NO. 6 (VHH)
VHH: QVQVVESGGGLVQAGGSLRLSCAASGRAFSSYAMGWFRQAPGKQRELVAVITSGGSTNYADSVKGRFTISRDNAKNTVYLQMNSLKPEDTAVYYCAAGTGYGGGFLIGYDYWGQGTQVTVSS
notes: Alpaca-derived sdAb
In assay [1], B4 yielded a Kd of 0.753 nM, a koff of 0.000172 s⁻¹ and a kon of 228000 M⁻¹ s⁻¹. Besides, the “Geometric mean MFI” value in assay [3] came out at 298.

B5: anti-GCC single domain antibody SEQ ID NO. 5 (VHH)
VHH: AVQLVESGGGLVQPGGSLRLSCAASGSTISINVMGWYRQAPGKQRDLVAAISSVGSTYYADSVKGRFTISRDNAKNTVYLQMNSLKPEDTAVYYCNAKSLISDYWGQGTQVTVSS
notes: Alpaca-derived sdAb
Regarding B5, in assay [1], the Kd came to 0.431 nM, the koff stood at 0.000142 s⁻¹ and the kon was 330000 M⁻¹ s⁻¹. The “Geometric mean MFI” value in assay [3] was found to be 371.

B6: humanized anti-GCC single domain antibody SEQ ID NO. 100 (VHH)
VHH: B5 VHH with A74S, V78L, K86R, P87A
notes: 5
Take B6: in assay [2], the affinity, expressed as Kd, was 0.324 nM; the koff worked out at 0.000191 s⁻¹; the kon came out at 591000 M⁻¹ s⁻¹.

B7: humanized anti-GCC single domain antibody SEQ ID NO. 101 (VHH)
VHH: B5 VHH with K64A, A74S, K75R, V78L, K86R, P87A
notes: 5
In assay [2], B7 registered a Kd of 0.574 nM, a koff of 0.000218 s⁻¹ and a kon of 380000 M⁻¹ s⁻¹.

B8: humanized anti-GCC single domain antibody SEQ ID NO. 112 (VHH)
VHH: EVQLVESGGGLVQPGGSLRLSCAASGFTFSHYAMSWVRQAPGKALEWVSDISSGGGITYYADSVKGRFTISRDNSKNTLYLQMNSLRAEDTAVYYCAKASAIGYLAYWMRNPVEYDTRGQGTLVTVSS
notes: 8
As to B8, in assay [2], binding was characterised by a dissociation constant (Kd) of 118 nM, the koff came to 0.00462 s⁻¹ and the kon amounted to 39100 M⁻¹ s⁻¹.

B9: humanized anti-GCC single domain antibody SEQ ID NO. 114 (VHH)
VHH: B8 VHH with E1Q, K65A, K76R
notes: 8
In assay [2], B9 registered a Kd of 195 nM, a koff of 0.0044 s⁻¹ and a kon of 22600 M⁻¹ s⁻¹.

B10: humanized anti-GCC single domain antibody SEQ ID NO. 113 (VHH)
VHH: B8 VHH with A23G, Y59K
notes: 8
As to B10, in assay [2], the Kd was 1.29 nM, the koff came out at 0.00277 s⁻¹ and the kon was 2.15e+06 M⁻¹ s⁻¹.

B11: anti-GCC single domain antibody SEQ ID NO. 1 (VHH)
VHH: QVQLVESGGGLVQAGGSLRLSCTGSARPFSNYGMGWFRQAPGKEREFVAAISGGGVYTDFADAVKGRFTISRDNAKNTVYLQMNSLKPEDTAVYYCARARTARVVSRRHEYDYWGQGTQVTVSS
notes: Alpaca-derived sdAb
For the molecule B11, in assay [1], binding was put at a Kd of 0.56 nM, the koff turned out to be 0.0002 s⁻¹ and the kon was found to be 357000 M⁻¹ s⁻¹. Further, the “Geometric mean MFI” value in assay [3] turned out to be 790.

B12: humanized anti-GCC single domain antibody SEQ ID NO. 86 (VHH)
VHH: B11 VHH with Q1E, A14P, K43N, A63S, A75S, V79L, K87R, P88A
notes: 1
In assay [2], B12 showed a Kd of 0.235 nM, a koff of 0.000181 s⁻¹ and a kon of 768000 M⁻¹ s⁻¹.

B13: anti-GCC single domain antibody SEQ ID NO. 3 (VHH)
VHH: B11 VHH with L4F, G24A, A26G, R27G, P28I, A63S, N74R, V104L, V105T, E110D
notes: Alpaca-derived sdAb
In assay [1], B13 registered a dissociation constant (Kd) of 0.218 nM, a koff of 0.00018 s⁻¹ and an on-rate constant (kon) of 827000 M⁻¹ s⁻¹. For the same molecule, in assay [3], the “Geometric mean MFI” value is 910.

B14: anti-GCC single domain antibody SEQ ID NO. 2 (VHH)
VHH: B11 VHH with G24A, A26G, R27G, P28T, S30V, T58R, A63S, V93L, A102P, S106N
notes: Alpaca-derived sdAb
In assay [1], B14 showed an equilibrium dissociation constant (Kd) of 0.0759 nM, a koff of 4.67e-05 s⁻¹ and a kon of 615000 M⁻¹ s⁻¹. In addition, the “Geometric mean MFI” value in assay [3] amounted to 721.

B15: humanized anti-GCC single domain antibody SEQ ID NO. 83 (VHH)
VHH: EVQLVESGGGLVQPGGSLRLSCAASARPFSNYGMGWFRQAPGKEREFVAAISGGGVYTYYADSVKGRFTISRDNSKNTLYLQMNSLRAEDTAVYYCARARTARVVSRRHEYDYWGQGTQVTVSS
notes: 1
In assay [2], B15 showed a Kd of 0.115 nM, a koff of 0.000177 s⁻¹ and an on-rate constant (kon) of 1.53e+06 M⁻¹ s⁻¹.

B16: humanized anti-GCC single domain antibody SEQ ID NO. 85 (VHH)
VHH: B15 VHH with K76R
notes: 1
Take B16: in assay [2], the affinity, expressed as Kd, was 0.187 nM; the koff was found to be 0.000309 s⁻¹; the kon stood at 1.66e+06 M⁻¹ s⁻¹.

B17: humanized anti-GCC single domain antibody SEQ ID NO. 94 (VHH)
VHH: B15 VHH with A26G, R27G, P28I, K76R, V104L, V105T, E110D
notes: 3
In assay [2], B17 returned a Kd of 0.425 nM, a koff of 0.000633 s⁻¹ and a kon of 1.49e+06 M⁻¹ s⁻¹.

B18: humanized anti-GCC single domain antibody SEQ ID NO. 88 (VHH)
VHH: B15 VHH with A26G, R27G, P28T, S30V, T58R, A102P, S106N
notes: 2
For the molecule B18, in assay [2], the Kd stood at 0.155 nM, the koff is 0.000337 s⁻¹ and the on-rate (kon) stood at 2.17e+06 M⁻¹ s⁻¹.

B19: humanized anti-GCC single domain antibody SEQ ID NO. 92 (VHH)
VHH: B15 VHH with A26G, R27G, P28I, V104L, V105T, E110D
notes: 3
As for B19, in assay [2], the Kd came to 0.759 nM, the koff came out at 0.000788 s⁻¹ and the kon stood at 1.04e+06 M⁻¹ s⁻¹.

B20: humanized anti-GCC single domain antibody SEQ ID NO. 116 (VHH)
VHH: QVQLVESGGGLVKPGGSLRLSCAASGETLSNYNIGWFRQAPGKEREGVSCISQIGFTNYADSVKGRFTISRDNAKNSLYLQMNSLRAEDTAVYYCAVTGGRWASCSFLPLRQDFESWGQGTLVTVSS
notes: 9
In assay [2], B20 gave a Kd of 15.4 nM, a koff of 0.0636 s⁻¹ and a kon of 4.14e+06 M⁻¹ s⁻¹.

B21: anti-GCC single domain antibody SEQ ID NO. 10 (VHH)
VHH: AVQLVESGGGMVQPGGSLRLSCAASGFTFGAYDMTWVRQAPGKGAEWVSAINSGGDRTYYTDSVKGRFTISRDNAKNTLYLQMNSLKPADTAKYYCGTKIPQFLRGQGTQVTVSS
notes: Alpaca-derived sdAb
With B21, in assay [1], the Kd was 0.427 nM, the koff was found to be 0.000702 s⁻¹ and the kon came out at 1.64e+06 M⁻¹ s⁻¹.

B22: anti-GCC single domain antibody SEQ ID NO. 7 (VHH)
VHH: QVQLVESGGGLVQPGGSLRLSCAASGSRFMTSSMGWYRQTPGKQREWVATATSSDSTLYADAVKGRFTISRDNAKNTVYLQMNSLKPQDTAVYYCFTTPPTFWGHGTQVTVSS
notes: Alpaca-derived sdAb
In assay [1], B22 returned a Kd of 2.53 nM, a koff of 0.000395 s⁻¹ and an on-rate (kon) of 156000 M⁻¹ s⁻¹. The “Geometric mean MFI” value in assay [3] came out at 268.

B23: humanized anti-GCC single domain antibody SEQ ID NO. 108 (VHH)
VHH: B22 VHH with Q1E, A62S, K75R, T77S, V78L, K86R, P87A, Q88E
notes: 7
As to B23, in assay [2], the Kd turned out to be 2.37 nM, the koff turned out to be 0.000546 s⁻¹ and the on-rate (kon) stood at 231000 M⁻¹ s⁻¹.

B24: humanized anti-GCC single domain antibody SEQ ID NO. 109 (VHH)
VHH: B22 VHH with Q1E, K43N, A62S, T77S, V78L, K86R, P87A, Q88E
notes: 7
In assay [2], B24 returned a dissociation constant (Kd) of 11.8 nM, an off-rate constant (koff) of 0.00213 s⁻¹ and a kon of 181000 M⁻¹ s⁻¹.

B25: humanized anti-GCC single domain antibody SEQ ID NO. 107 (VHH)
VHH: B22 VHH with Q1E, A62S, T77S, V78L, K86R, P87A, Q88E
notes: 7
In assay [2], B25 came in with a Kd of 2.03 nM, a koff of 0.000531 s⁻¹ and a kon of 261000 M⁻¹ s⁻¹.

B26: humanized anti-GCC single domain antibody SEQ ID NO. 110 (VHH)
VHH: B22 VHH with Q1E, K43N, Q44G, A62S, T77S, V78L, K86R, P87A, Q88E
notes: 7
In assay [2], B26 displayed a Kd of 54.6 nM, a koff of 0.01 s⁻¹ and a kon of 183000 M⁻¹ s⁻¹.
